Molecular target: MT1-MMPmCh ΔDKV (UniProt P50281)

tyrosine phosphorylation (4G10 blot) of precipitated MT1-MMPmCh by recombinant GST-LIMK1 in an in vitro kinase assay, ΔDKV against WT: 60 % decrease
Substance: LIM Kinase-1 (from UniProt P53667 1-647) (natural protein)
